# Test results reported in US5679770A, “Polypeptide, DNA fragment encoding the same, drug composition containing the same and process for producing the same” (Mochida Pharmaceutical Co., Ltd., priority 1991, dated 1997).
# Numbering of substitutions follows the chain as printed. Names and notes keep the numbering of the source.
# T1: Bovine trypsin (Bos taurus, UniProt P00760)
# T1 construct: purchased Sigma Chemical Co. Type XIII
# T1 sequence (P00760 24-246): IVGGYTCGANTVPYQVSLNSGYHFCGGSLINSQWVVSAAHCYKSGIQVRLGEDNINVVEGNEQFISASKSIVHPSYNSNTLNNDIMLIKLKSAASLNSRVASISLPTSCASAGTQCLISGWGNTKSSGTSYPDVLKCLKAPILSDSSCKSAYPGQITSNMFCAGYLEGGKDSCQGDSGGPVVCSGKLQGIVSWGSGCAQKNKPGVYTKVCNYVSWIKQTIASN
# T2: Human neutrophil elastase (Homo sapiens, UniProt P08246)
# T2 construct: purchased CALBIOCHEM
# T2 sequence (P08246 30-267): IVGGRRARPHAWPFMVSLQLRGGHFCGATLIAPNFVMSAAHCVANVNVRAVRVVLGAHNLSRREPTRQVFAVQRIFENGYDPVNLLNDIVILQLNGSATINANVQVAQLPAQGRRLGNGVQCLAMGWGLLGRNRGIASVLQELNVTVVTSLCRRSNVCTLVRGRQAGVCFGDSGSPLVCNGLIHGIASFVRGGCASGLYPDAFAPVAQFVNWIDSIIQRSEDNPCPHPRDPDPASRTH
# B1: R11Q/Q19K/Y46D: formula 1 sequence with Gln for position 7 Arg, Lys for position 15 Gln, Asp for position 42 Tyr; SEQ. I.D. NO. 37 (protein)
# chain: AACNLPIVQGPCRAFIKLWAFDAVKGKCVLFPYGGCQGNGNKFDSEKECREYCGVPGDGDEELLRFSN
# B2: R11D/Q19K/Y46D: formula 1 sequence with Asp for position 7 Arg, Lys for position 15 Gln, Asp for position 42 Tyr; SEQ. I.D. NO. 38 (protein)
# chain: B1 chain with Q9D
# B3: R11N/Q19K/Y46D: formula 1 sequence with Asn for position 7 Arg, Lys for position 15 Gln, Asp for position 42 Tyr; SEQ. I.D. NO. 41 (protein)
# chain: B1 chain with Q9N
# B4: R11E/Q19K/Y46E: formula 1 sequence with Glu for position 7 Arg, Lys for position 15 Gln, Glu for position 42 Tyr; SEQ. I.D. NO. 40 (protein)
# chain: B1 chain with Q9E, D44E
# B5: R11A/Q19K/Y46D: formula 1 sequence with Ala for position 7 Arg, Lys for position 15 Gln, Asp for position 42 Tyr; SEQ. I.D. NO. 43 (protein)
# chain: B1 chain with Q9A
# B6: R11L/Q19K/Y46D: formula 1 sequence with Leu for position 7 Arg, Lys for position 15 Gln, Asp for position 42 Tyr; SEQ. I.D. NO. 39 (protein)
# chain: B1 chain with Q9L
# B7: R11S/Q19K/Y46D: formula 1 sequence with Ser for position 7 Arg, Lys for position 15 Gln, Asp for position 42 Tyr; SEQ. I.D. NO. 42 (protein)
# chain: B1 chain with Q9S
# Assays:
# Type in all cases: biochemical
# human trypsin = molecular target: T3, human trypsin (Homo sapiens, UniProt P07477); experiment: Human trypsin-inhibiting activity (synthetic substrate S-2444); conditions: purified polypeptide, various concentration levels
# T3 construct: purchased Calbiochem
# Experimental: The purified polypeptide of the present invention was dissolved in 100 μl of distilled water. Concentration of polypeptide in the thus prepared solution was determined based on its bovine trypsin-inhibiting activity measured in accordance with the above procedure (1) using UTI (Mochida Pharmaceutical Co., Ltd.; cf. H. Ohnishi et al., Nippon Yakurigaku Zasshi, vol.85, pp.1-6, 1985) as a standard. The polypeptide solution was then diluted to various concentration levels with 0.03% BSA/0.2M triethanolamine-HCl buffer (pH 7.8) for use in the activity measurement. Separately from this, human trypsin (Calbiochem) was dissolved in 1 mM HCl to a concentration of 1,000 SU/ml and the solution was further diluted with the 0.03% BSA/0.2M triethanolamine-HCl buffer (pH 7.8) to prepare a 1.25 SU/ml solution of human trypsin. Thereafter, human trypsin-inhibiting activity was measured in the same manner as described in the above procedure (1) using the aforementioned synthetic substrate S-2444. Separately from this, polypeptide AN68 (sequence described in Example 17(3)) was diluted to various concentration levels. Thereafter, human trypsin-inhibiting activity was measured in the same manner as described in the above procedure (1) and compared with the trypsin-inhibiting activity of the novel polypeptide of the present invention.
# Bovine trypsin = molecular target: T1, Bovine trypsin; experiment: Bovine trypsin-inhibiting activity (synthetic substrate S-2444); conditions: purified polypeptide, serially diluted
# Experimental: The purified polypeptide of the present invention was dissolved in 100 μl of distilled water, and the solution was serially diluted with a 0.1% BSA/0.2M triethanolamine-HCl buffer (pH 7.8) for use in the activity measurement. Measurement of the trypsin-inhibiting activity in the thus prepared test sample was carried out in accordance with the Kassell's method (Kassell, B. et al., Methods in Enzymology, vol.19, pp.844-852, 1970) using a synthetic substrate S-2444 (Daiichi Pure Chemicals Co., Ltd.).
# Bovine trypsin (Type XIII, Sigma Chemical Co.) was dissolved in 0.001M HCl to a final concentration of 13,600 BAEEU/ml and the solution was further diluted with 0.1% BSA/0.2M triethanolamine-HCl buffer (pH 7.8) to prepare 1.2 BAEEU/ml of trypsin solution. Separately from this, 2 mM solution of the synthetic substrate S-2444 was prepared by dissolving it in distilled water. Next, 100 μl of the test sample was mixed with 100 μl of the trypsin solution. After incubating statically at 37° C. for 10 minutes, 50 μl of the S-2444 solution was added to start the reaction. The reaction was carried out at 37° C. for 15 minutes and then stopped by adding 50 μl of 50% acetic acid solution to the reaction mixture. Thereafter, absorbance at a wavelength of 405 nm was measured using a spectrophotometer. In this instance, in order to eliminate absorbancy of various contents in the reaction mixture other than the reaction product, a blank solution was prepared by mixing 100 μl of the bovine trypsin solution with 50 μl of 50% acetic acid and then with 100 μl of each test sample and 50 μl of the S-2444 solution.
# [1] = molecular target: T2, Human neutrophil elastase; experiment: Human elastase-inhibiting activity (substrate STANA); conditions: for elastase-inhibiting activity, times higher than that of polypeptide Q19K/Y46D: relative to Q19K/Y46D; for elastase-inhibiting activity, times higher than that of polypeptide AN68: relative to control AN68
# Experimental: The purified polypeptide of the present invention was dissolved in 100 μl of distilled water. The concentration of this solution was determined based on its bovine trypsin-inhibiting activity using UTI as a standard. The solution was then diluted to various concentration levels with 0.1% BSA/27 mM CaCl2 /133 mM Tris-HCl buffer (pH 7.5) for use in the activity measurement. The aforementioned AN68 was also diluted in the same manner for use as a control. Human elastase-inhibiting activities in the test samples and the control were measured in accordance with the method of Ogawa et al. (Ogawa, M. et al., Res. Commun. Chem. Pathol. Pharmacol., vol.55, pp.271-274, 1987) using a synthetic compound STANA (Peptide Institute Inc.) as a substrate.
# Human neutrophil elastase (CALBIOCHEM) was dissolved in 27 mM CaCl2 /133 mM Tris-HCl buffer (pH 7.5) to a concentration of 100 μg/ml and the solution was further diluted with 0.1% BSA/27 mM CaCl2 /133 mM Tris-HCl buffer (pH 7.5) to prepare a 4 μg/ml elastase solution. 100 mM STANA solution was prepared by dissolving it in N-methyl-2-pyrrolidone and the solution was further diluted with 0.1% BSA/27 mM CaCl2 /133 mM Tris-HCl buffer (pH 7.5) to prepare a 20 mM STANA solution.
# Next, 50 μl of the test sample or positive control was mixed with 50 μl of the elastase solution and 50 μl of 0.1% BSA/27 mM CACl2 /133 mM Tris-HCl buffer (pH 7.5). After incubation at 37° C. for 10 minutes, 50 μl of the STANA solution was added to the mixture to start the reaction. The reaction was carried out at 37° C. for 20 minutes and then stopped by adding 50 μl of 50% acetic acid solution to the reaction mixture. Thereafter, absorbance at a wavelength of 405 nm was measured using a spectrophotometer. In this instance, in order to eliminate absorbance of various solutions in the reaction product, a blank solution was prepared by mixing 50 μl of the elastase solution with 50 μl of 50% acetic acid and then with 50 μl of each test sample or the control, 50 μl of 0.1% BSA/27 mM CaCl2 /133 mM Tris-HCl buffer (pH 7.5) and with 50 μl of the STANA solution.
# The results are shown in FIG. 54 and FIG. 55 and FIG. 67 to FIG. 69. In these figures, polypeptide concentration in the reaction solution is expressed as its bovine trypsin-inhibiting activity. Also, remaining human elastase activity was expressed by percentage based on the absorbance of a control reaction mixture in which 50 μl of the 0.1% BSA/27 mM CaCl2 /133 mM Tris-HCl buffer (pH 7.5) was used instead of the test sample or the control.
Molecule,human trypsin inhibition (human trypsin),bovine trypsin inhibition (Bovine trypsin),"elastase-inhibiting activity, times higher than that of polypeptide Q19K/Y46D [1]","elastase-inhibiting activity, times higher than that of polypeptide AN68 [1]","elastase-inhibiting activity, times higher than that of polypeptide Q19K/Y46E ([1]; relative to Q19K/Y46E from E. coli JE5505(pM721))"
B1,can inhibit human trypsin in a concentration-dependent manner,can inhibit bovine trypsin in a concentration-dependent manner,about 3 times,about 3 times,–
B2,can inhibit human trypsin in a concentration-dependent manner,can inhibit bovine trypsin in a concentration-dependent manner,about 3 times,about 3 times,–
B3,can inhibit human trypsin in a concentration-dependent manner,can inhibit bovine trypsin in a concentration-dependent manner,about 5 times,about 5 times,–
B4,can inhibit human trypsin in a concentration-dependent manner,can inhibit bovine trypsin in a concentration-dependent manner,–,about 5 times,6 times
B5,can inhibit human trypsin in a concentration-dependent manner,can inhibit bovine trypsin in a concentration-dependent manner,about 4 times,about 4 times,–
B6,can inhibit human trypsin in a concentration-dependent manner,can inhibit bovine trypsin in a concentration-dependent manner,about 2 times,about 2 times,–
B7,can inhibit human trypsin in a concentration-dependent manner,can inhibit bovine trypsin in a concentration-dependent manner,about 10 times,about 10 times,–
